US20230340128A1 (Xencor, published 2023)

B1: XENP32563 (bispecific antibody)
chain 1: QVQLVQSGAEVKKPGASVKVSCKASGYTFTSYWMHWVRQAPGQGLEWMGMIHPNSDNTIYYEKFQGRVTMTVDKSISTAYMELSRLRSDDTAVYYCAIIITPVVPKFDYWGQGTLVTVSSASTKGPSVFPLAPSSKSTSGGTAALGCLVKDYFPEPVTVSWNSGALTSGVHTFPAVLQSSGLYSLSSVVTVPSSSLGTQTYICNVNHKPSDTKVDKKVEPKSCDKTHTCPPCPAPPVAGPSVFLFPPKPKDTLMISRTPEVTCVVVDVKHEDPEVKFNWYVDGVEVHNAKTKPREEEYNSTYRVVSVLTVLHQDWLNGKEYKCKVSNKALPAPIEKTISKAKGQPREPQVYTLPPSREEMTKNQVSLTCDVSGFYPSDIAVEWESDGQPENNYKTTPPVLDSDGSFFLYSKLTVDKSRWEQGDVFSCSVMHEALHNHYTQKSLSLSPGK
chain 2: not shown
chain 3: DIVMTQSPDSLAVSLGERATINCKASHDVGTYVAWYQQKPGQSPKLLIYWASTRHTGVPDRFTGSGSGTDFTLTISSLQAEDVAVYFCQQYSSYPLTFGAGTKLEIKRTVAAPSVFIFPPSDEQLKSGTASVVCLLNNFYPREAKVQWKVDNALQSGNSQESVTEQDSKDSTYSLSSTLTLSKADYEKHKVYACEVTHQGLSSPVTKSFNRGEC
B2: XENP44471 (bispecific antibody)
heavy 1: QVQLVQSGAEVKKPGASVKVSCKASGYTFTSYWMHWVRQAPGQGLEWMGWIHPNSDNTIYYEKFQGRVTMTVDKSISTAYMELSRLRSDDTAVYYCAIIITPVVPKFDYWGQGTLVTVSSASTKGPSVFPLAPSSKSTSGGTAALGCLVKDYFPEPVTVSWNSGALTSGVHTFPAVLQSSGLYSLSSVVTVPSSSLGTQTYICNVNHKPSDTKVDKKVEPKSCDKTHTCPPCPAPPVAGPSVFLFPPKPKDTLMISRTPEVTCVVVDVKHEDPEVKFNWYVDGVEVHNAKTKPREEEYNSTYRVVSVLTVLHQDWLNGKEYKCKVSNKALPAPIEKTISKAKGQPREPQVYTLPPSREEMTKNQVSLTCDVSGFYPSDIAVEWESDGQPENNYKTTPPVLDSDGSFFLYSKLTVDKSRWEQGDVFSCSVLHEALHSHYTQKSLSLSPGK
heavy 2: not shown
light 1: DIVMTQSPDSLAVSLGERATINCKASHDVGTSVAWYQQKPGQSPKLLIYWASTRHTGVPDRFTGSGSGTDFTLTISSLQAEDVAVYFCQQYSSYPLTFGAGTKLEIKRTVAAPSVFIFPPSDEQLKSGTASVVCLLNNFYPREAKVQWKVDNALQSGNSQESVTEQDSKDSTYSLSSTLTLSKADYEKHKVYACEVTHQGLSSPVTKSFNRGEC
light 2: DIVMTQSPDSLAVSLGERATINCKASHDVGTSVAWYQQKPGQSPKLLIYWASTRHTGVPDRFTGSGSGTDFTLTISSLQAEDVAVYFCQQYSSYPLTFGAGTKLEIKRTVAAPSVFIFPPSDEQLKSGTASVVCLLNNFYPREAKVQWKVDNALQSGNSQESVTEQDSKDSTYSLSSTLTLSKADYEKHKVYACEVTHQGLSSPVTKSFNRGEC
notes: also called XENP44471 MSLN (9 nM) x CD28 (180 nM) 2+1 Fab2-scFv-Fc
B3: XENP44477 (bispecific antibody)
heavy: QVQLVQSGAEVKKPGASVKVSCKASGYTFTSYWMHWVRQAPGQGLEWMGWIHPNSDNTIYYEKFQGRVTMTVDKSISTAYMELSRLRSDDTAVYYCAIIITPVVPKFDYWGQGTLVTVSSASTKGPSVFPLAPSSKSTSGGTAALGCLVKDYFPEPVTVSWNSGALTSGVHTFPAVLQSSGLYSLSSVVTVPSSSLGTQTYICNVNHKPSDTKVDKKVEPKSCGGGGSGGGGSQVQLVQSGAEVKKPGASVKVSCKASGYTFTSYWMHWVRQAPGQGLEWMGWIHPNSDNTIYYEKFQGRVTMTVDKSISTAYMELSRLRSDDTAVYYCAIIITPVVPKFDYWGQGTLVTVSSASTKGPSVFPLAPSSKSTSGGTAALGCLVKDYFPEPVTVSWNSGALTSGVHTFPAVLQSSGLYSLSSVVTVPSSSLGTQTYICNVNHKPSDTKVDKKVEPKSCDKTHTCPPCPAPPVAGPSVFLFPPKPKDTLMISRTPEVTCVVVDVKHEDPEVKFNWYVDGVEVHNAKTKPREEEYNSTYRVVSVLTVLHQDWLNGKEYKCKVSNKALPAPIEKTISKAKGQPREPQVYTLPPSREEMTKNQVSLTCDVSGFYPSDIAVEWESDGQPENNYKTTPPVLDSDGSFFLYSKLTVDKSRWEQGDVFSCSVLHEALHSHYTQKSLSLSPGK
scFv-Fc: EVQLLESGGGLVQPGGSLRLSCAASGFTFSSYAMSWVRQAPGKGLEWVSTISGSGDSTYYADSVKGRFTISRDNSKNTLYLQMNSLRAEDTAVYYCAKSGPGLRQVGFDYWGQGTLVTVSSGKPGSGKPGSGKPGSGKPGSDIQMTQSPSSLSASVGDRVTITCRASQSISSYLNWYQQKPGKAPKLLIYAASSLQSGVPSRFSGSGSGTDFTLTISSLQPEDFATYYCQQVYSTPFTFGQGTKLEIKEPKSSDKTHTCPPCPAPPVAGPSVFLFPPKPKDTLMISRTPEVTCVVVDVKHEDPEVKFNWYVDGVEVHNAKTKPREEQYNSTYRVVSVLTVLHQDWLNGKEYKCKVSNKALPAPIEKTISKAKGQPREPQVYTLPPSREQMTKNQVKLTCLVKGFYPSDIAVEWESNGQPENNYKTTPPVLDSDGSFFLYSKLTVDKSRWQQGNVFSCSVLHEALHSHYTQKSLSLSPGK
light 1: DIVMTQSPDSLAVSLGERATINCKASHDVGTSVAWYQQKPGQSPKLLIYWASTRHTGVPDRFTGSGSGTDFTLTISSLQAEDVAVYFCQQYSSYPLTFGAGTKLEIKRTVAAPSVFIFPPSDEQLKSGTASVVCLLNNFYPREAKVQWKVDNALQSGNSQESVTEQDSKDSTYSLSSTLTLSKADYEKHKVYACEVTHQGLSSPVTKSFNRGEC
light 2: DIVMTQSPDSLAVSLGERATINCKASHDVGTSVAWYQQKPGQSPKLLIYWASTRHTGVPDRFTGSGSGTDFTLTISSLQAEDVAVYFCQQYSSYPLTFGAGTKLEIKRTVAAPSVFIFPPSDEQLKSGTASVVCLLNNFYPREAKVQWKVDNALQSGNSQESVTEQDSKDSTYSLSSTLTLSKADYEKHKVYACEVTHQGLSSPVTKSFNRGEC
notes: also called XENP44477 MSLN (9 nM) x CD28 (180 nM) 2+1 Fab2-Fc x scFv-Fc
B4: XENP32948 (bispecific antibody)
chain 1: QVQLVQSGAEVKKPGASVKVSCKASGYTFTSYWMHWVRQAPGQGLEWMGMIHPNSDNTIYYQKFQGRVTMTVDKSISTAYMELSRLRSDDTAVYYCAIIITPVVPKFDYWGQGTLVTVSSASTKGPSVFPLAPSSKSTSGGTAALGCLVKDYFPEPVTVSWNSGALTSGVHTFPAVLQSSGLYSLSSVVTVPSSSLGTQTYICNVNHKPSDTKVDKKVEPKSCDKTHTCPPCPAPPVAGPSVFLFPPKPKDTLMISRTPEVTCVVVDVKHEDPEVKFNWYVDGVEVHNAKTKPREEEYNSTYRVVSVLTVLHQDWLNGKEYKCKVSNKALPAPIEKTISKAKGQPREPQVYTLPPSREEMTKNQVSLTCDVSGFYPSDIAVEWESDGQPENNYKTTPPVLDSDGSFFLYSKLTVDKSRWEQGDVFSCSVMHEALHNHYTQKSLSLSPGK
chain 2: QVQLVQSGAEVKKPGASVKVSCKASGYTFTSYWMHWVRQAPGQGLEWMGMIHPNSDNTIYYQKFQGRVTMTVDKSISTAYMELSRLRSDDTAVYYCAIIITPVVPKFDYWGQGTLVTVSSASTKGPSVFPLAPSSKSTSGGTAALGCLVKDYFPEPVTVSWNSGALTSGVHTFPAVLQSSGLYSLSSVVTVPSSSLGTQTYICNVNHKPSNTKVDKKVEPKSCGGGGSGGGGSQAVVTQEPSLTVSPGGTVTLTCGSSTGAVTTSNYANWVQQKPGKSPRGLIGGTNKRAPGVPARFSGSLLGGKAALTISGAQPEDEADYYCALWYSNHWVFGGGTKLTVLGKPGSGKPGSGKPGSGKPGSEVQLVESGGGLVQPGGSLRLSCAASGFTFSTYAMNWVRQAPGKGLEWVGRIRSKANNYATYYADSVKGRFTISRDDSKNTLYLQMNSLRAEDTAVYYCVRHGNFGDSYVSWFAYWGQGTLVTVSSGGGGSGGGGSKTHTCPPCPAPPVAGPSVFLFPPKPKDTLMISRTPEVTCVVVDVKHEDPEVKFNWYVDGVEVHNAKTKPREEQYNSTYRVVSVLTVLHQDWLNGKEYKCKVSNKALPAPIEKTISKAKGQPREPQVYTLPPSREQMTKNQVKLTCLVKGFYPSDIAVEWESNGQPENNYKTTPPVLDSDGSFFLYSKLTVDKSRWQQGNVFSCSVMHEALHNHYTQKSLSLSPGK
chain 3: DIVMTQSPDSLAVSLGERATINCKASHDVGTSVAWYQQKPGQSPKLLIYWASTRHTGVPDRFTGSGSGTDFTLTISSLQAEDVAVYFCQQYYSYPLTFGAGTKLEIKRTVAAPSVFIFPPSDEQLKSGTASVVCLLNNFYPREAKVQWKVDNALQSGNSQESVTEQDSKDSTYSLSSTLTLSKADYEKHKVYACEVTHQGLSSPVTKSFNRGEC
B5: XENP44473 (bispecific antibody)
heavy 1: QVQLVQSGAEVKKPGASVKVSCKASGYTFTSYWMHWVRQAPGQGLEWMGWIHPNSDNTIYYEKFQGRVTMTVDKSISTAYMELSRLRSDDTAVYYCAIIITPVVPKFDYWGQGTLVTVSSASTKGPSVFPLAPSSKSTSGGTAALGCLVKDYFPEPVTVSWNSGALTSGVHTFPAVLQSSGLYSLSSVVTVPSSSLGTQTYICNVNHKPSDTKVDKKVEPKSCDKTHTCPPCPAPPVAGPSVFLFPPKPKDTLMISRTPEVTCVVVDVKHEDPEVKFNWYVDGVEVHNAKTKPREEEYNSTYRVVSVLTVLHQDWLNGKEYKCKVSNKALPAPIEKTISKAKGQPREPQVYTLPPSREEMTKNQVSLTCDVSGFYPSDIAVEWESDGQPENNYKTTPPVLDSDGSFFLYSKLTVDKSRWEQGDVFSCSVLHEALHSHYTQKSLSLSPGK
heavy 2: not shown
light 1: DIVMTQSPDSLAVSLGERATINCKASHDVGQSVAWYQQKPGQSPKLLIYWASTRHTGVPDRFTGSGSGTDFTLTISSLQAEDVAVYFCQQYSSYPLTFGAGTKLEIKRTVAAPSVFIFPPSDEQLKSGTASVVCLLNNFYPREAKVQWKVDNALQSGNSQESVTEQDSKDSTYSLSSTLTLSKADYEKHKVYACEVTHQGLSSPVTKSFNRGEC
light 2: DIVMTQSPDSLAVSLGERATINCKASHDVGQSVAWYQQKPGQSPKLLIYWASTRHTGVPDRFTGSGSGTDFTLTISSLQAEDVAVYFCQQYSSYPLTFGAGTKLEIKRTVAAPSVFIFPPSDEQLKSGTASVVCLLNNFYPREAKVQWKVDNALQSGNSQESVTEQDSKDSTYSLSSTLTLSKADYEKHKVYACEVTHQGLSSPVTKSFNRGEC
notes: also called XENP44473 MSLN (90 nM) x CD28 (180 nM) 2+1 Fab2-scFv-Fc

How the values were obtained:
[1] = biological target: T1, human mesothelin (MSLN) (human, UniProt Q13421 296-580, limits assumed); assay: KD quoted in the FIG. 25 legend; Octet (BLI) per FIGS. 20-21
T1 construct: Antigen of the Octet KD values

[2] = biological target: T1, human mesothelin (MSLN); assay: BLI (Octet), bsAb in 1+1 Fab-scFv-Fc format
[3] = biological target: T2, human CD28 (human, UniProt P10747 19-152, limits assumed); assay: label in the legend box: nominal affinity of the CD28 binding domain (paragraph 422 calls such label values KD); method not stated on the sheet
T2 construct: also called Cluster of Differentiation 28; Tp44

[4] = biological target: T1, human mesothelin (MSLN); assay: label in the legend box: nominal affinity of the MSLN binding domain (paragraph 422 calls such label values KD); method not stated on the sheet

Kd [1] | Kd [3] | Kd [4] | also measured | Binder
~12.8 nM |  |  | Kd [2]: 12.8 nM; Response [2]: 0.898; koff [2]: 0.00672 s⁻¹; kon [2]: 527000 M⁻¹ s⁻¹ | B1
 | 180 nM | 9 nM |  | B2
 | 180 nM | 9 nM |  | B3
10.2 nM |  |  |  | B4
 | 180 nM | 90 nM |  | B5
